From PMC10779274
Several values for one entry are separate records, joined by “and”; a condition that tells them apart may be missing. Identical values can stand only once.

Columns and labels:
[1] = target: Lsm protein of Haloferax mediterranei (Haloferax mediterranei); assay: SEC; HiPrep 16/60 Sephacryl S-200 HR, 20 mM Tris-HCl pH 7.5, 1.5 M NaCl, 0.5 mL/min, calibrated with protein standards; without RNA; peaks checked by Western blot with anti-Lsm
[2] = target: Lsm protein of Haloferax mediterranei (Haloferax mediterranei); assay: SEC; HiPrep 16/60 Sephacryl S-200 HR, 20 mM Tris-HCl pH 7.5, 2 M NaCl, 0.5 mL/min, calibrated with protein standards; without RNA
[3] = target: Lsm protein of Haloferax mediterranei (Haloferax mediterranei); assay: SEC; HiPrep 16/60 Sephacryl S-200 HR, 20 mM Tris-HCl pH 7.5, 1 M NaCl, 0.5 mL/min, calibrated with protein standards; without RNA
[4] = target: Lsm protein of Haloferax mediterranei (Haloferax mediterranei); assay: SEC; HiPrep 16/60 Sephacryl S-200 HR, 20 mM Tris-HCl pH 7.5, 0.5 M NaCl, 0.5 mL/min, calibrated with protein standards; without RNA; peaks checked by Western blot with anti-Lsm

stoichiometry N [1]: 72 subunits and 36 subunits
stoichiometry N [2]: 36 subunits
stoichiometry N [3]: 36 subunits
stoichiometry N [4]: 36 subunits
Substance: Lsm protein of Haloferax mediterranei (natural protein)
